Changes are numbered by the printed parent chain.

In assay [1] the target is T1, E. coli-expressed recombinant human IL-4 (human, UniProt P05112 25-153).
T1 sequence (looked up): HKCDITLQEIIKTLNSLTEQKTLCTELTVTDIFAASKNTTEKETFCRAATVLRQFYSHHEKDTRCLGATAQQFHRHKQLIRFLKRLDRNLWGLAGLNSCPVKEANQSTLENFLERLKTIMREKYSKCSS
Description: binding ELISA. For orientation: An ELISA detects its analyte on a solid surface through an enzyme-linked reagent.

The target of assay [2] is T2, E. coli-expressed recombinant human GM-CSF (human, UniProt P04141 18-144). The experiment in a line: binding ELISA.
T2 sequence (P04141 18-144 limits assumed): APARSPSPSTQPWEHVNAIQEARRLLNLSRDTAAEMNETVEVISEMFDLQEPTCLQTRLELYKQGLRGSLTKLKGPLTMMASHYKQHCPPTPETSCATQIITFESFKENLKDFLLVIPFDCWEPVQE
The target in assay [3] is T3, E. coli-expressed recombinant human IL-13 (human, UniProt P35225 35-146). The experiment in a line: cell-based or functional assay.
T3 sequence (P35225 other isoform, or with tags, fused parts or gaps): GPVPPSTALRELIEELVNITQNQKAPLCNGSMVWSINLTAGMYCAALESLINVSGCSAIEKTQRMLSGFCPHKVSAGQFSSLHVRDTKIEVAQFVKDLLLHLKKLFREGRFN
Assay [4] has as its target T4, E. coli-expressed recombinant cynomolgus IL-13 (cynomolgus, UniProt Q5I6E4 21-132 (Macaca thibetana entry)).
T4 chain: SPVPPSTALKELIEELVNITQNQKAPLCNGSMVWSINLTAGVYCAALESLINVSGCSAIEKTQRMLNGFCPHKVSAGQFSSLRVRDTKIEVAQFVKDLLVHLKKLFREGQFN
The experiment in a line: cell-based or functional assay.

Assay [5] has as its target E. coli-expressed recombinant Q130 human IL-13 (human, UniProt P35225 35-146, limits assumed). The experiment in a line: cell-based or functional assay.
Assay [6] addresses mammalian-expressed (CHO cell) human IL-13 (human, UniProt P35225 35-146, limits assumed). The experiment in a line: cell-based or functional assay.
The target of assay [7] is T3, E. coli-expressed recombinant human …. Description: human IL-13 binding sandwich ELISA.
Assay [8] has as its target T4, E. coli-expressed recombinant …. The experiment in a line: cynomolgus IL-13 binding sandwich ELISA.
For assay [9], the target named is T3, E. coli-expressed recombinant human …. Description: BIAcore analysis 1, antibody captured, IL-13 in solution. Here is the method: (§1) Completed for both human and cynomolgus IL-13 (E. coli-expressed protein). The quoted KD values are the average from 5 different IL-13 concentration curves (done in triplicate). Note that mass transfer issues were apparent in this analysis and that a modified experimental protocol (to correct for this issue) has been completed in analysis 4 (where no mass transfer issues were present).
(§2) The kinetics analysis was performed on a Biacore 3000 machine, using an antibody capture method. Briefly, for the chimeric 6A1 and humanised antibody constructs Protein A capture was used, whilst for the parental murine 6A1 antibody, capture was by a anti-mouse Fc antibody supplied by Biacore. Briefly, the method is as follows, the capture ligand was immobilised to a CM5 Biosensor chip by primary amine coupling in accordance with Biacore standard protocols and using the reagents supplied in Biacores' primary amine coupling kit. The method involves activation CM5 sensor surface by passing a solution of 50 mM N-hydroxy-succinimide (NHS) and 200 mM N-ethyl-N′-dimethylaminopropyl […] (EDC) over the surface. Then, the capture ligand (dissolved in acetate buffer pH5 or pH4.5) was coupled to the activated sensor surface after which any still activated esters were blocked by an injection of 1M ethanolamine hydrochloride, pH8.5.
(§3) The candidate antibody was then passed over the Protein A or anti-mouse Fc antibody surface, depending on whether it was human or mouse in origin and captured. Once a stable binding signal was seen IL13 was passed over the captured antibody surface at various defined concentrations. The subsequent binding curves were analysed with Biacore analysis software BIAeval v4.1 to determine kinetics. The experiments were carried out using Biacore HBS-EP buffer.
In general terms: In SPR one partner is held on a chip, and binding of the other changes the refractive index at the surface.

In assay [10] the target is T4, E. coli-expressed recombinant …. The description is as above. How it is done: as §1, §2, §3
For assay [11], the target named is T5, native (PBMC derived) human IL-13 (human, UniProt P35225 35-146, limits assumed).
T5 construct: IL-13 in supernatant of stimulated human CD4+ Th2 cells; also called native human IL-13; Native IL-13
T5 sequence (P35225 other isoform, or with tags, fused parts or gaps limits assumed): as the sequence (P35225 other isoform, or with tags, fused parts or gaps) above
Description: ELISA on Th2 cell supernatant read against a standard curve.

Assay [12] addresses T6, 16mer biotinylated human IL-13 peptide number 24 (human, N-terminal biotin; C-terminal amide).
T6 construct: format Biotin-SGSG-PEPTIDE-amide; also called Peptide 24
T6 peptide: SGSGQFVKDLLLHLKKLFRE
Description: BIAcore analysis 3, antibody over biotinylated peptide on SA chip. How it is done:
Completed for the 16mer biotinylated human IL-13 peptide number 24 (identified as the linear binding epitope for parental mAb 6A1, see section 6.7). Note that the absolute KD values obtained for binding to peptide ligands are often quite different to those seen for binding to whole protein targets.
The kinetics analysis was performed on a Biacore 3000 machine using direct binding of antibody to immobilised IL-13 peptide. Briefly, IL-13 biotinylated peptide was captured using a Biacore SA (strepavidin) Biosensor chip. The antibodies were then passed over the sensor surface at various concentrations. The subsequent binding curves were analysed with Biacore analysis software BIAeval 4.1 to determine kinetics. The experiment was carried out using Biacore HBS-EP buffer

Assay [13] deals with T3, E. coli-expressed recombinant human …. The experiment in a line: BIAcore analysis 4, antibody captured on Protein A, IL-13 in solution. How it is done:
(§4) Completed for both human and cynomolgus IL-13 (E. coli-expressed protein). The quoted KD values are the average from 5 different IL-13 concentration curves (done in triplicate).
as §2, §3

In assay [14] the target is T4, E. coli-expressed recombinant …. The assay is described as above. Here is the method:
as §4, §2, §3

The target of assay [15] is T7, E. coli-expressed recombinant det-1 tagged human IL-13 (human, UniProt P35225 35-146).
T7 construct: also called Det-1 tagged human IL-13 (made in-house); not shown: det-1 tag
T7 sequence (P35225 other isoform, or with tags, fused parts or gaps): as the sequence (P35225 other isoform, or with tags, fused parts or gaps) above
Description: competition ELISA: inhibition of det-1 tagged human IL-13 binding to human IL-13Rα1-Fc.

Assay [16] deals with T7, E. coli-expressed recombinant det-1 …. Description: competition ELISA: inhibition of det-1 tagged human IL-13 binding to human IL-13Rα2-Fc.
Assay [17] deals with T3, E. coli-expressed recombinant human …. The experiment in a line: human IL-13 binding ELISA, CHO supernatant.
Assay [18] has the same target. Description: sandwich ELISA.
Assay [19] has as its target T2, E. coli-expressed recombinant human …. Description: sandwich ELISA.
For assay [20], the target named is T1, E. coli-expressed recombinant human IL-4. Description: human IL-4 binding sandwich ELISA.

Sequence of E. coli-expressed recombinant Q130 human IL-13 (P35225 35-146 limits assumed): as the sequence (P35225 other isoform, or with tags, fused parts or gaps) above, with R110Q counted along it
Sequence of mammalian-expressed (CHO cell) human IL-13 (P35225 other isoform, or with tags, fused parts or gaps limits assumed): as the sequence (P35225 other isoform, or with tags, fused parts or gaps) above

B1: L2+A1 (antibody, human IgG1, kappa, V domains shown)
VH: QVQLVQSGAEVKKPGSSVKVSCKASGFYIKDTYMHWVRQAPGQGLEWMGTIDPANGNTKYVPKFQGRVTITADESTSTAYMELSSLRSEDTAVYYCARSIYDDYHYDDYYAMDYWGQGTLVTVSS
VL: DIVMTQSPLSLPVTPGEPASISCRSSQNIVHINGNTYLEWYLQKPGQSPRLLIYKISDRFSGVPDRFSGSGSGTDFTLKISRVEADDVGVYYCFQGSHVPWTFGQGTKLEIKR
notes: Humanised 6A1, VH construct A1 and VL construct L2; also called A1L2
As to B1, the binding result in [1] and in assay [2] was “no binding (tested: 30 µg/ml)” in each case. For the same molecule, the “Mean ND50 for 2 assays” value in [3] was found to be 0.608 µg/mL; in assay [4] it was 0.12 µg/mL; in assay [5] it was 0.705 µg/mL; in assay [6] it was 1.2 µg/mL. Besides, the concentration giving a half-maximal response (EC50) (commonly the concentration that produces a half-maximal response) in [7] came to 0.024 µg/mL; in assay [8] it was 0.028 µg/mL. The Kd (in general, the free concentration of one partner at which half of the binding sites on the other are occupied at equilibrium, for simple one-to-one binding) in [9] worked out at 310 pM; in assay [10] it was 97 pM; in assay [12] it was 9350 pM; in assay [13], 153 pM; in assay [14] it was 55 pM. The off-rate (koff) (in general, the rate constant with which the complex falls apart) in assay [9] was 0.000156 s⁻¹; in assay [10], 5.58e-05 s⁻¹; in assay [12], 0.00167 s⁻¹; in assay [13] it was 0.000139 s⁻¹; in [14], 4.25e-05 s⁻¹. Also, the kon (usually the rate constant with which the complex forms) was 507000 M⁻¹ s⁻¹ in assay [9]; 577000 M⁻¹ s⁻¹ in [10]; 179000 M⁻¹ s⁻¹ in assay [12]; 907000 M⁻¹ s⁻¹ in [13]; 772000 M⁻¹ s⁻¹ in [14]. In addition, in [11], the “Native IL-13 (ng/ml) detected in Th2 supernatant” value was found to be 22.7 ng/mL. In addition, the IC50 (in general, the midpoint of a concentration-inhibition curve) in [15] was 0.056 µg/mL; in [16] it was 0.117 µg/mL.

B2: A2L1 (antibody, human IgG1, kappa, V domains shown)
VH: B1 VH with R38I
VL: B1 VL with V90I
notes: Humanised 6A1 combination, tested as CHO cell supernatant
On to B2, for which, in [17], the binding result was “binds”.

B3: A4L1 (antibody, human IgG1, kappa, V domains shown)
VH: B1 VH with K19R, R38I, E74T, E82R
VL: B1 VL with V90I
notes: as for B2
Take B3: the binding result in assay [18] was “binds”.

B4: A3L1 (antibody, human IgG1, kappa, V domains shown)
VH: B1 VH with R38I, E74T
VL: B1 VL with V90I
notes: as for B2
As to B4, the binding result in [17] is “binds”.

B5: A3L2 (antibody, human IgG1, kappa, V domains shown)
VH: B1 VH with R38I, E74T
VL: B1 VL
notes: as for B2
As to B5, the binding result in assay [17] is given as “binds”.

B6: A4L2 (antibody, human IgG1, kappa, V domains shown)
VH: B1 VH with K19R, R38I, E74T, E82R
VL: B1 VL
notes: as for B2
B6: the binding result in assay [18] is “binds”.

B7: A2L2 (antibody, human IgG1, kappa, V domains shown)
VH: B1 VH with R38I
VL: B1 VL
notes: as for B2
Take B7: the binding result in [17] is given as “binds”.

B8: chimaeric 6A1 (antibody, human IgG1, V domains shown)
VH: EIQLQQSVAELVRPGASVRLSCTASGFYIKDTYMHWVIQRPEQGLEWIGTIDPANGNTKYVPKFQGKATITADTSSNTAYLRLSSLTSEDTAIYYCARSIYDDYHYDDYYAMDYWGQGTSVTVSS
VL: DVLMTQTPLSLPVSLGDQASISCRSSQNIVHINGNTYLEWYLQKPGQSPKLLIYKISDRFSGVPDRFSGSGSGTDFTLKISRVEAEDLGVYYCFQGSHVPWTFGGGTKLEIK
notes: Parent murine 6A1 V regions on human IgG1/k wild type C regions, expressed in CHO cells; also called 6A1c; 6A1 chimaeric antibody
On to B8, for which the binding result in [19] and in [20] was “no binding” throughout. Moreover, the “Mean ND50 for 2 assays” value in assay [3] stood at 0.119 µg/mL; in [4] it was 0.059 µg/mL; in assay [5], 0.128 µg/mL; in assay [6] it was 0.285 µg/mL. Moreover, the values for the EC50 in assay [7] and in assay [8] were 0.015 µg/mL and 0.018 µg/mL, respectively. Also, the Kd in [9] came out at 43 pM; in assay [10] it was 55 pM; in [12] it was 3580 pM; in assay [13], 38 pM; in assay [14] it was 30 pM. Further, the off-rate (koff) in assay [9] was determined as 2e-05 s⁻¹; in assay [10], 3.27e-05 s⁻¹; in [12] it was 0.000919 s⁻¹; in assay [13], 4e-05 s⁻¹; in assay [14] it was 2.65e-05 s⁻¹. In addition, the kon in assay [9] was determined as 464000 M⁻¹ s⁻¹; in assay [10], 592000 M⁻¹ s⁻¹; in [12] it was 257000 M⁻¹ s⁻¹; in assay [13], 1.05e+06 M⁻¹ s⁻¹; in assay [14] it was 885000 M⁻¹ s⁻¹. In addition, the “Native IL-13 (ng/ml) detected in Th2 supernatant” value in [11] was 19.6 ng/mL. In addition, the IC50 was 0.034 µg/mL in [15] and 0.04 µg/mL in [16].
